Data: paper PMC9828552

Tests used:
purified protein [1] = substrate: C[C@H](N)C(=O)O; assay: purified protein; settings: oxidative deamination, 1 mM NAD+, 100 mM NaHCO3 pH 10, 25 °C
purified protein [2] = substrate: O=CO; assay: purified protein; settings: 3 mM NAD+, 25 mM potassium phosphate pH 7.5, 25 °C

Protein | Km (purified protein [1]) | kcat (purified protein [1]) | Km (purified protein [2]) | kcat (purified protein [2])
AlaDH-FDH-His fusion protein (AlaDH domain) (Halomonas elongata DSM 2581) (protein) MKIAVPKEIKNHEYRVALTPSGARELVGRGHDVIVQAAAGEGAGFSDADFEAAGARLEADVAKLWDDAELILKVKEPQAEEVARLSAGQTLFTYLHLAAEESLTKGLLDSGATCIAYETITAPEGGLPLLAPMSTVAGRMAVQAGAHSLEKAQGGAGILLPGVPGVAPARVTVIGGGVVGENAARMALGLGAEVTVLDKSIPRLETLDDRYQGRMKTVFSTADALEEAVRESDLIIGAVLVPGAAAPKLITRDMLSDMKPGSVLVDVAIDQGGCFETSKPTTHAEPTYVVDGVVHYCVANMPGAVARTSTQALTNATLPFVVALADKGWQKALADDDHFAAGLNVHDGKLTYRAVAEAFGLEYVEAASLIG | 11.4 ± 1.5 mM | 1.7 s⁻¹ | – | –
AlaDH-FDH-His fusion protein (FDH domain) ([Candida] boidinii) (protein) MKIVLVLYDAGKHAADEEKLYGCTENKLGIANWLKDQGHELITTSDKEGETSELDKHIPDADIIITTPFHPAYITKERLDKAKNLKLVVVAGVGSDHIDLDYINQTGKKISVLEVTGSNVVSVAEHVVMTMLVLVRNFVPAHEQIINHDWEVAAIAKDAYDIEGKTIATIGAGRIGYRVLERLLPFNPKELLYYDYQALPKEAEEKVGARRVENIEELVAQADIVTVNAPLHAGTKGLINKELLSKFKKGAWLVNTARGAICVAEDVAAALESGQLRGYGGDVWFPQPAPKDHPWRDMRNKYGAGNAMTPHYSGTTLDAQTRYAEGTKNILESFFTGKFDYRPQDIILLNGEYVTKAYGKHDKK | – | – | 7.8 ± 1.4 mM | 0.7 s⁻¹
WT FDH (CbFDH) ([Candida] boidinii) (protein) MKIVLVLYDAGKHAADEEKLYGCTENKLGIANWLKDQGHELITTSDKEGETSELDKHIPDADIIITTPFHPAYITKERLDKAKNLKLVVVAGVGSDHIDLDYINQTGKKISVLEVTGSNVVSVAEHVVMTMLVLVRNFVPAHEQIINHDWEVAAIAKDAYDIEGKTIATIGAGRIGYRVLERLLPFNPKELLYYDYQALPKEAEEKVGARRVENIEELVAQADIVTVNAPLHAGTKGLINKELLSKFKKGAWLVNTARGAICVAEDVAAALESGQLRGYGGDVWFPQPAPKDHPWRDMRNKYGAGNAMTPHYSGTTLDAQTRYAEGTKNILESFFTGKFDYRPQDIILLNGEYVTKAYGKHDKK | – | – | 5.0 ± 1.0 mM | 1.3 s⁻¹
